Legend:
[1] = target: T1, PerB (Caulobacter vibrioides, UniProt O85353); assay: HPLC, ESI-MS and 1H NMR of the product; assay type: biochemical; details: acetyl CoA 1 mM, HEPES pH 7.5, 10 mM MgCl2, room temperature
[2] = target: T1, PerB; assay: X-ray crystal structure, […] Å; assay type: binding
[3] = substrate: CC(=O)SCCNC(=O)CCNC(=O)[C@H](O)C(C)(C)COP(=O)(O)OP(=O)(O)OC[C@H]1O[C@@H](n2cnc3c(N)ncnc32)[C@H](O)[C@@H]1OP(=O)(O)O; assay: discontinuous HPLC assay; assay type: biochemical, Caulobacter vibrioides; details: pH 8.0, 25 °C, GDP-perosamine co-substrate
[4] = substrate: C[C@H]1O[C@H](OP(=O)(O)OP(=O)(O)OC[C@H]2O[C@@H](n3cnc4c(=O)[nH]c(N)nc43)[C@H](O)[C@@H]2O)[C@@H](O)[C@@H](O)[C@@H]1N; assay: discontinuous HPLC assay; assay type: biochemical, Caulobacter vibrioides; details: pH 8.0, 25 °C, acetyl CoA co-substrate

| Molecule | Km [3] | Km [4] | further results |
| --- | --- | --- | --- |
| C[C@H]1O[C@H](OP(=O)(O)OP(=O)(O)OC[C@H]2O[C@@H](n3cnc4c(=O)[nH]c(N)nc43)[C@H](O)[C@@H]2O)C(O)CC1N (some centres unmarked) [GDP-3-deoxyperosamine] |  |  | HPLC, ESI-MS and 1H NMR of the product [1]: Using GDP-3-deoxyperosamine, we were able to, indeed, show that PerB produces an acetylated form |
| CC(=O)N[C@H]1[C@H](O)[C@H](O)[C@@H](OP(=O)(O)OP(=O)(O)OC[C@H]2O[C@@H](n3cnc4c(=O)[nH]c(N)nc43)[C@H](O)[C@@H]2O)O[C@@H]1C [GDP-N-acetylperosamine] |  |  | X-ray crystal structure, 1.0 Å ([2]; with CoA, formed by turnover in the crystal): The enzyme turned over, and CoA and GDP-N-acetylperosamine were left bound in the active site. |
| CC(C)(COP(=O)(O)OP(=O)(O)OC[C@H]1O[C@@H](n2cnc3c(N)ncnc32)[C@H](O)[C@@H]1OP(=O)(O)O)[C@@H](O)C(=O)NCCC(=O)NCCS [CoA] |  |  | X-ray crystal structure, 1.0 Å ([2]; with GDP-perosamine): The first was that of the enzyme with bound CoA and GDP-perosamine. |
| PerB (Caulobacter vibrioides) (protein) MSASLAIGGVVIIGGGGHAKVVIESLRACGETVAAIVDADPTRRAVLGVPVVGDDLALPMLREQGLSRLFVAIGDNRLRQKLGRKARDHGFSLVNAIHPSAVVSPSVRLGEGVAVMAGVAINADSWIGDLAIINTGAVVDHDCRLGAACHLGPASALAGGVSVGERAFLGVGARVIPGVTIGADTIVGAGGVVVRDLPDSVLAIGVPAKIKGDRS | 150 ± 20 µM | 87 ± 11 µM |  |
| PerB (Caulobacter vibrioides; H141N) (protein) MSASLAIGGVVIIGGGGHAKVVIESLRACGETVAAIVDADPTRRAVLGVPVVGDDLALPMLREQGLSRLFVAIGDNRLRQKLGRKARDHGFSLVNAIHPSAVVSPSVRLGEGVAVMAGVAINADSWIGDLAIINTGAVVDNDCRLGAACHLGPASALAGGVSVGERAFLGVGARVIPGVTIGADTIVGAGGVVVRDLPDSVLAIGVPAKIKGDRS | 94 ± 17 µM | 150 ± 10 µM |  |
| PerB (Caulobacter vibrioides; D142N) (protein) MSASLAIGGVVIIGGGGHAKVVIESLRACGETVAAIVDADPTRRAVLGVPVVGDDLALPMLREQGLSRLFVAIGDNRLRQKLGRKARDHGFSLVNAIHPSAVVSPSVRLGEGVAVMAGVAINADSWIGDLAIINTGAVVDHNCRLGAACHLGPASALAGGVSVGERAFLGVGARVIPGVTIGADTIVGAGGVVVRDLPDSVLAIGVPAKIKGDRS | 59 ± 7 µM | 110 ± 10 µM |  |
| PerB (Caulobacter vibrioides; H141A) (protein) MSASLAIGGVVIIGGGGHAKVVIESLRACGETVAAIVDADPTRRAVLGVPVVGDDLALPMLREQGLSRLFVAIGDNRLRQKLGRKARDHGFSLVNAIHPSAVVSPSVRLGEGVAVMAGVAINADSWIGDLAIINTGAVVDADCRLGAACHLGPASALAGGVSVGERAFLGVGARVIPGVTIGADTIVGAGGVVVRDLPDSVLAIGVPAKIKGDRS | 110 ± 10 µM | 200 ± 10 µM |  |

— article PMC4249942 (Biochemistry, 2012)
